# B1: Regulatory protein NPR1 (Arabidopsis thaliana (Mouse-ear cress)), P93002 (parent)
# chain: MDTTIDGFADSYEISSTSFVATDNTDSSIVYLAAEQVLTGPDVSALQLLSNSFESVFDSPDDFYSDAKLVLSDGREVSFHRCVLSARSSFFKSALAAAKKEKDSNNTAAVKLELKEIAKDYEVGFDSVVTVLAYVYSSRVRPPPKGVSECADENCCHVACRPAVDFMLEVLYLAFIFKIPELITLYQRHLLDVVDKVVIEDTLVILKLANICGKACMKLLDRCKEIIVKSNVDMVSLEKSLPEELVKEIIDRRKELGLEVPKVKKHVSNVHKALDSDDIELVKLLLKEDHTNLDDACALHFAVAYCNVKTATDLLKLDLADVNHRNPRGYTVLHVAAMRKEPQLILSLLEKGASASEATLEGRTALMIAKQATMAVECNNIPEQCKHSLKGRLCVEILEQEDKREQIPRDVPPSFAVAADELKMTLLDLENRVALAQRLFPTEAQAAMEIAEMKGTCEFIVTSLEPDRLTGTKRTSPGVKIAPFRILEEHQSRLKALSKTVELGKRFFPRCSAVLDQIMNCEDLTQLACGEDDTAEKRLQKKQRYMEIQETLKKAFSEDNLELGNSSLTDSTSSTSKSTGGKRSNRKLSHRRR
# partner: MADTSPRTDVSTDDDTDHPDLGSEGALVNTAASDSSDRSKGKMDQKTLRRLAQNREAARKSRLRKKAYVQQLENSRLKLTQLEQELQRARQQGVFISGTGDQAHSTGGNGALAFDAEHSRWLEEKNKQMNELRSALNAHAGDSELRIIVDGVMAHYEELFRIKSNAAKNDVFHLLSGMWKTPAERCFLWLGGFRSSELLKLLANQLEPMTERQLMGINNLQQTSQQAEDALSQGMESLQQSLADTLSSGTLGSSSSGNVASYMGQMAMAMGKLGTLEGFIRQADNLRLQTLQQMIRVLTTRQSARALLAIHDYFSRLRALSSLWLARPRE
# Variants of: B1
# Conditions: with tga2_arath TGA2, P43273
row,effect of a mutation on the interaction,Variant
1,disrupting interaction,C150Y

# Reference: IntAct's records for PubMed 12084833
